The values that follow come from the DeepSol protein solubility set.

The data set in a line: soluble on expression in E. coli; label from the status in PepcDB or PDB records.
With “GMTNHNNSGKKKVAILIEQAVEDTEFIIPCNGLKQAGFEVVVLGSRMNEKYKGKRGRLSTQADGTTTEAIASEFDAVVIPGGMAPDKMRRNPNTVRFVQEAMEQGKLVAAVCHGPQVLIEGDLLRGKQATGFIAISKDMMNAGADYLDEALVVDGNLITSREPGDLAIFTTAILSRLGYGGKDAALPDEKDRNAEWWKLADAWGGSTKGDIVRGLNTALGGERYSLEALEKYTEKESDVEAKALFQEMITNKQRHIEYLETYLTRLGEKPSLSANIANQYAKVKTALTGSDDIYQIRSALGDIQTGIGDIGNLCAMYTDPIATAIFKEIYKDLVKYEQRLVSLYRTRTNATVQPPKPTTGAAVSM”, the “soluble on expression in E. coli” value is on record as “soluble”. “GMTRRIAICAPSTPFTREDSARVIALAAAEFPDLSLSFHEQCFASEGHFAGSDALRLSAFLECANDDAFEAVWFVRGGYGANRIAEDALARLGRAASAKQYLGYSDAGTLLAALYAHRIGRSVHAPMPVDIRRPEGESAVRRTLGWLAGAREGLEPTLGAGAPAVAFNLMTLAMLCGTRLLPDLSGHVVMIEEVAEHHYAVDRLLFHVTSCLADAGIAGLRLGRVSDVPENDRPFGCSVEEMARHWCHRAGIAFLGTADIGHDVDNRIVPFGLA”: the “soluble on expression in E. coli” value is “soluble”. As for “GNFYAVRKGRETGIYNTWNECKNQVDGYGGAIYKKFNSYEQAKSFLG”, the “soluble on expression in E. coli” value is reported as “soluble”.

Regarding “GNYHVTLQASYIAKNVEDVEDAIGVAISQIGKLLNKGSLDYVDIDVGLTICPKCGEPIDCVLVVAKTAIVGILLSMKVFNAESPEHAVRIAKSSIGRALKDIP”, the “soluble on expression in E. coli” value is given as “not soluble”. As for “GPDSEMCKDYRVLPRIGYLCPKDLKPVCGDDGQTYNNPCMLCHENLIRQTNTHIRSTGKCEESSTPGTTAASMPPSDE”, the “soluble on expression in E. coli” value is listed as “soluble”. As for “GPGSEHLTTVAAPFTCPIRRTVFAEGRRTIIFFRNIDATTAVFHQLRSAGFAVSLLHASLPYKVRKEMYADFASGRTNILCATDVAARGLDLHVDMVINFDVPTNALAYLSRSGRTARMGREGQVLNLYNKHQGVIVSAIKAFLKDNLPMEGLTNRKADMMQPRYAEWRTHKINALARSYVSLITR”, the entry is “not soluble”. To “GPGSMAATTEVTPEHVLQLTAPSTGFLCPITANTYNIEFYSFVVRDADTKQVMFEVERDASTYPSVASLAQLPEEQQQAARTIFYRFPPSMLRKQRVSATLLFGVNGDKPVPDLRMIERHYFRNTLVKTFDFKFGFCIPHSRNTWEAVYDVPQFNAEWLEAIEKGTNEMTSDSFYFADGRLIMHNRAFYDYSAPEEEFTK” belongs “soluble”; to “GPGSMASSKVILEDTFTVAAVNEEGTVYSRVSRVRCTGEGGGLIITSDVNTGEFPLHSGDRLTIILTDSIELSEQAGSKHYDQSVYHRSTRLDDCDYAMHGRVYSMEVNESSLDVTVHISCGGLLTQIVGKPQSLKDVHYNSDVYILMKRPGS”, “soluble”; to “GPGSMASVSPSETGGTLITFLQQLRGTLVEIELKNASIVSGEIAYVDANMNTYMSHAKITSKGKNPVEVEEYMVRGSTIRYIIMPESLNTYDILKQASTKKNGASKK”, “soluble”.

Turning to “GPGSMAVGASSRTAQRTPARERRQIIPPDVSGQFRVTTFLSLDAFALQHFTLDDHSATGKEGRMFRAFGVTTWAPRIWDEGVSGVFLDLRGAYNYWKRADDQAQLVFDSLVAWIGALEAERDPTDRFMNLGRILLQAFRMQLMMASDPGIPVFNILARPCTAVHEADTFARTIQIPLERRGTQISLRCQLCHVTCP”, the “soluble on expression in E. coli” value is “not soluble”.

Regarding “GPGSMDDLVAVRIKDGIFAGNAGAAADKTLLIMNKITHIINCAGAEVADFFLGEPGFSYLSFPWKDAAGSVCTTILFDAGDDNIHRVVQFIDEALAAGECVLVHSVYGNSRSPALIAAYMIMKYGWKLESALLYLKMAHPDSDIKPHFQRQLRQFAKRHEVDHDIFAQDVDDSQFGLDNDQWMLRNTLLNGLLYKDQMANDLYRQCAEKVDVGNPVNGKAKKAHITFVDTKKGTDA”, the “soluble on expression in E. coli” value is given as “not soluble”.

Consider “GPGSMDVLVPRAASSGAVGRTPAARTFSAAPPSASSSLCVVGSADHGLKVFNLCTMRELKTLYTKTCGHTEWVTACRFLSDRRVISGGMDSKLCLWNDVTRGGPGRCVDLLGHTGSISQVEVNERHGRSIAMSSSYDRTIRVWELDGIAGGREMGCLSGHKGPVTQFSWLETEVLSGDRQGTVKLWDVETAQCHLTASSKRGQIGSLAHLVHPGVGHLALFGDQGGALTVVDARGPSSAKPLFQDVLHPGGMVTFIRAPSPTAVSAPLIVTCGADKRIIVRDARHNFAEVCAITDHDDFVYSMEVIGNILLSGAGNGRLLVHDVETGELLYELKANAAAVREMFASPSVLVAAGDDGNAKVFDFM”, for which the “soluble on expression in E. coli” value is “not soluble”. On to “GPGSMEEGVDLREGLPEDVLAAVIAAPGQVTVEEARAQLNSSTSFRVDAGLVHLTADGAREQSQMETMLLKLATKIPPTGVSGAQFRAILEDEAPHFQPSAVGALSLKEAVQRYPRLFDVETDTTGKWFVRPAGVGKDGRASVGKNSGPISIINFCSERALMGNQADYVPLHVAMREESVASEGVLRDLVDSEELSKQLQIRFSVRLRPKRPVTNAFCFVDGDEIGLEAVDAIWKEMNLSDKSTRLVARQPTSRKHNSSDIVAPADMPTYAVVERKARELSLTQSVVLQDVIYMCSLRQFSLYADHIAKLNAFPDADVYVCCPSKVKLVAQKQFVPL”, for which the “soluble on expression in E. coli” value is recorded as “not soluble”. To “GPGSMELALEAMDAAEPPVSAAEKARRLALLRASSAEEARSLVALHDAAALAELRAAIMDSFPDERHDPEMSVHLDQIIWGRCPIRIDVAGAWTDTPPYAILSGGSVINVAVELNGQPPVQVYVRVREDPIIMMHSIDSGEQLSVSSFDEIRTYATMQNPFSIPKAALALCGFLPEFCATEYATLREQLAARFGGHGLEISLFVAIPTGSGLGTSSIVAGTVLRSLAEFCKLPWDNHDVCRRVLLIEQMLTAGGGWQDQYGGLFEGLKLVQCVPGLPCLPTVRWMPDSVYTDPRFAACHLLYYTGITRMAKGILGEIVRDVLLNNGATLQLLREMGGPTTAAMYDAITTGNYKGYARLVHRTWEQKKRLDDGVCNPTVQSIVDIVEPYVWGLTLPGAGGGGYMYMCAKDEACARRIRELLTANPPNGNARFVEMSVSASGLQISRS” belongs “not soluble”; to “GPGSMERTPTARIRDVIDSQLALRSSGFLPGNSTPDQLLHLRAAVHRNAPQHRTAAYFVDHANAFGTVGPDAVILEMRRLSIPNRIARWSAACLNSTSAVVCIDKLTPSSRTLTRGAPQGTVLAPIMFVVVMQSRCSCPSNVPYFAEGSSLMTALSPHSRATGMRSTRPQKKA”, “not soluble”. As for “GPGSMERYAFAEDYKNARGIPRVEYISDMATFVKNNGGADALISRLILDSSKYEHTEKRLVSSMANLDHKIPTIKKTLHALNFLKKRLQEDQTPVRSYYCLTDAVFGEAEVVPQETVHLWMGAKVMVEYTFDEALQLLEKNLANAETNLKATKEDLAWVQEQMTNLQINISRVYNYDLKNKRTNGGAAEPSA”, the “soluble on expression in E. coli” value is “soluble”.

In the case of “GPGSMETFRERTLANRYQPRQHLPPEFPGVLKEYAREVLREQPEDILQWSANYFKRLAREMDAKPAGEHRMTAPALPHLESRPNTREEEEEEYGERLQQYIDMFVEHDSENNGVLPVKAIKEALLKSYGLTLPQALYVLTATQLVEKEPVNYAEFACESFPALRFVWSTEHNFQVSNREDTTVHGLSRIDVQQEFLKLLRFADRSDTSLLSIDQYMDVLRCAPYHLTTRDLRILRVEAELNERHEVNYEEELLHIFDRLLLAEQFAQLDSDD”, the “soluble on expression in E. coli” value is on record as “soluble”. “GPGSMEYNARYQVSPRDQFLRKVVVVPYGVLGMQMTLQGGLVRAGSEPDESTFIVDPANLRHIFTTAVGATGASGAIYNMLGLRGPFPDEVVQAISRVCDTKFYKYGERANVIHVVDPDFREGAWSEREAAVELSRAYRNVFHEFVRGDGDVLRVPPLSSGVLSGSLYNQLPIITQSAVAMAFEQLHTFDREYLLRRDKQVELCVFMNREWDMYQNVFKNCTQPSKL”: the “soluble on expression in E. coli” value is listed as “soluble”. Regarding “GPGSMFTQISNAHTEVVTSLVFSPHVVTTCEGGLLCSTSGDDTTALWDLRAGPGVSQRAAHLTGHHVGPVNHALFHPSNAHTLLTASDDRSIGCWDLRRPDRVVGAVSGFQEGVNKMLWLPVTSDGCRGTGGSSSGGGGSVVSACDDGHVYVHALALPDSGSESATVAGAAPVPQVGALVDKFRVSTSTVNDIVLAPNSTSILITASEDCALRSWSLRHAQQMTNTSVGLMEDRLLATLDEFENPVNHVVVVPSGLMAPVESRAAGEDPESSSSRSPAGAAGDAEESADAAAASTGFPRAYQQVHGGDDVEDAEVGSDAGSSAGARQPRRATDISEAAGTACWLLAACSECVFGVDFALRVGEFGTGARAFVGHQDYVRGLEFTSEGKLLTVSDDSTAIEWDLATTDPIRQVKLHEGLVMSSAVSPSRNLLATGTDRGELRVWRLPFATERIGGSP”, the “soluble on expression in E. coli” value is reported as “not soluble”. For the sequence “GPGSMHVSSPQRAKSEASQPPNGSPPLSSSEPAAVHLYDLDTVFLSKTVISLTDVFTNSTDGPFDLSPLCAPQQQGVEEQQRLQQAAATTASSPSTGDAHCSPSSGATHAHMCSTSLPFSGGSTLRPKAVARGADGQWRTVSTDRGAPASSAFTTACNKPPSQEAHARMLLVPLDSYHFLLTYHDVDVAGQLRGRCDKQTAMATMERLSAASPGCRPPRSGICVVRRLEGEQRGATKASSAATAVLAGAASATRPTLSRIAHGLPLDAFDGWVRDYTVYGLSCNEAVLRAAWEDKARERAEGTLAMPAGAVVEVGESAAPGHESAGGGGSGEERRVTGGGNSRGDNVGGVHISVPPASGSSAEATVEGAAALAPQLSDAPSVLVPTDGAAVGEGKDAATFASPDAARAAMLSPSLDRLHCSSTTSSSSTATPTPSPPTERSEEGGKVGGTVSTTMSASPASTAAQQQQQQNDVLWEEERQRTQRAAAQLRHRFLVSDSAQHALWALEVHLPAMKVRAVSPAEFYALEVEESDEERCQQLPGTARMMATMVTMKHRRHAALQKHERILLMHLHRDWRFLAGRQRLQSRAAARPSQVTATLSRARPAPTHRGRARHRRQIR”, the “soluble on expression in E. coli” value is listed as “soluble”. With “GPGSMIHPMAVDRLLPSQEAAELIELTREIADKVLDPIVDRHEKDETYPEGVFEQLGAAGLLSLPQPEEWGGGGQPYEVYLQVLEEIAARWASVAVAVSVHSLSSHPLLVFGTEEQKKRWLPGMLSGEQIGAYSLSEPQAGSDAAALRCAATPTDGGYVINGSKSWITHGGKADFYTLFARTGEGSRGVSCFLVPADQPGLSFGKPEEKMGLHAVPTTSAFYDNARIDADRRIGEEGQGLQIAFSALDSGRLGIAAVATGLAQAALDEAVAYANERTAFGRKIIDHQGLGFLLADMAAAVATARATYLDAARRRDQGRPYSQQASIAKLTATDAAMKVTTDAVQVFGGVGYTRDYRVERYMREAKIMQIFEGTNQIQRLVIARGLTR”, the “soluble on expression in E. coli” value is given as “soluble”.

In the case of “GPGSMKIGVVLGSGGHTSEMLRAITEIPLSYWLDTRPFYVVSATDPHSASLASQLEQQRFERRVVVYTIPRAREVGQSYLMSIITTIRATLACFRFVCTEKPDVLLTNGPGVCVPVIAAAVCVASCAPWWYGRPAIVYMESFTCVSHLSLTGSLLAPWLADVFTVHWRALERAVARRRRRGTLVYVGSETARVTDGAPHRLRSLAAEQEAYALVTVGSTKFSSLVQAVVQPGVCATLHQRFGIKRLYVQHGTAEVVAPPEATLLPALPMAAGADASHPTQQWSCGGLLVEAFPYRPCLDAVIRGATLVITHAGAGTILEGLQAQRPLVVVPNRQLMSDHQLDLAEALANGGFLFCVQVAELAERLPLLDLTTLRPHGGMDAAQLQEALRLVLTGHSASGERAKAD”, the “soluble on expression in E. coli” value is on record as “not soluble”.
